Patent publication US7338938B2, “Methods for treating a patient undergoing chemotherapy” (University of Southern California, priority 1999, dated 2008)
Like-named read-outs stand apart in the source and are kept apart here.

Key:
[1] = test system: mice injected with 150 mg/kg 5FU intravenously (WBC, platelets, hemoglobin); experiment: Effect of angiotensin fragments and ACE inhibitor on recovery after chemotherapy (Example 4); format: in vivo; conditions: after i.v. 5FU
Procedure: The next study was designed to test the effect of angiotensin peptides and the angiotensin converting enzyme inhibitor, enalapril, on recovery of white blood cells, platelets and hemoglobin after chemotherapy, as well as on granulocyte-macrophage colony forming units (GM-CFU) in the blood and bone marrow.
Female […] mice (4 per group), 6-8 weeks old, were injected with 150 mg/kg 5FU intravenously. Administration of the peptides (AII (100 μg/kg/day), AII(1-7) (10 or 100 μg/kg/day), AII(1-5) (10 or 100 μg/kg/day), and AII(1-6) (100 μg/kg/day)), by subcutaneous injection, or enalapril (30 mg/kg/day) by oral gavage, was begun 2 days after administration of the antineoplastic and continued daily until 28 days after 5FU administration, at which time the mice were euthanized for evaluation of white blood cell numbers, platelets, hemoglobin levels and the number of GM-CFU in the bone marrow and peripheral blood. On days 7, 10, 14 and 21 after 5FU administration, blood was taken under anesthesia from the retro-orbital sinus to assess white blood cell number, platelet number, and hemoglobin levels.
The mice were bled from the retro-orbital sinus at days 7, 10, 14 and 21. The mice were anesthetized with Metofane (an inhaled anesthesia). Approximately 150-200 μl of blood were obtained from the retro-orbital sinus with a heparinzed capillary tube. The blood was then placed in a 1.7 ml microfuge tube containing 10 mM EDTA and held on ice until further processing.
One hundred μl of blood was pipetted into a centrifuge tube, to which 900 μl of distilled water was added. The blood and water were mixed by inversion and allowed incubate at 4° C. for 20 minutes. The tube was then centrifuged at 12000 rpm to precipitate the cellular debri for 20 to 30 minutes at room temperature. Twenty μl of the supernatant from this centrifugation was then added into triplicate wells of a 96 well plate containing 180 μl of distilled water. The optical density, was then read using a microplate reader at […].
Twenty μl of blood was mixed with 200 μl of red blood cell (RBC) lysing solution (0.83% NH4Cl, 10 mM EDTA, 0.5% NaHCO3). The mixture was then incubated for 10 minutes at 4° C. After this incubation, the supernatant was removed and the pellet was resuspended in 100 μl of PBS. To this, 100 μl of 0.04% trypan blue was added. This mixture was vortexed and the number of WBC (baseline was approximately 10^7 cells/ml) was evaluated by hematocytometer under light microscopy and the number: of platelets (baseline was approximately 2.5×10^8 platelets/ml) was evaluated by hematocytometer under phase contrast microscopy.
The blood was harvested by cardiac puncture on day 10 to assess mobilization of myeloid progenitors into the peripheral blood. The femurs and tibia were also collected and the bone marrow was harvested by flushing with PBS containing 2% fetal calf serum. After collection of the blood and bone marrow, the red blood cells were lysed with a hypotonic solution (described above), mixed with 0.04% trypan blue, and the number of nucleated cells assessed by hematocytometer under light microscopy. Aliquots of cells were then resuspended at 1×10^5 cells/ml (bone marrow) or 1×10^6 cells/ml Flood). […]

[2] = animal daily doses 10 to 1,000 μg/kg for 30 days; human 2.5 to 100 μg/kg/day
Procedure: Based upon safety evaluation studies in animals (where the daily doses tested ranged from 10 to 1,000 μg/kg for 30 days) and the pharmacology profile of, AII(1-7), the dose range used in humans ranged from 2.5 to 100 μg/kg/day over at least 10 days.

[3] = test system: female C57B1/6 mice treated with 200 mg/kg cytoxan
[4] = test system: patients with newly diagnosed breast cancer receiving doxorubicin and cyclophosphamide
[5] = test system: patients with newly diagnosed breast cancer receiving doxorubicin and cyclophosphamide; experiment: Phase I/II dose escalation study of AII(1-7) before and after chemotherapy (Example 5); conditions: in vivo

Asp-Arg-Val-Tyr-Ile-His-Pro [AII(1-7)]
platelets after administration [1]: increase in platelets | safety margin of human dose range over the animal exposures [2]: 9-10 fold | number of GM-CFU in the bone marrow ([3]; 100 μg/kg/day, started 2 days prior to cytoxan): slightly reduced | number of myeloid progenitor cells in the bone marrow ([3]; administration initiated 2 days after chemotherapy): increased the number of myeloid progenitor cells in the bone marrow | number of myeloid progenitors in the peripheral blood ([3]; administration initiated after cyclophosphamide treatment): increased the number of myeloid progenitors in the peripheral blood | recovery of WBC after intravenous cyclophosphamide ([3]; s.c. treatment initiated two days after the chemotherapeutic): accelerated the recovery of WBC | time after cyclophosphamide at which increase in WBC number was observed ([3]; treatment initiated two days after cyclophosphamide): ≤ 9 days | WBC number compared with control ([3]; treatment initiated two days prior to cyclophosphamide, starting on day 14): decrease in WBC number compared with control | change in platelet number ([4]; 50 μg/kg/day AII(1-7)): only day 12 showed any change in platelet number | dose-limiting toxicities ([4]; 2.5 to 100 μg/kg/d): No dose-limiting toxicities | Toxicity: ANC < 1000/μl (frequency) ([4]; AII(1-7) 2.5 μg/kg): 100% | Toxicity: Hgb < 10 gm/dl (frequency) ([4]; AII(1-7) 2.5 μg/kg): 66% | Toxicity: Lymph < 500/μl (frequency) ([4]; AII(1-7) 2.5 μg/kg): 66% | Toxicity: Platelet < 80 K/μl (frequency) ([4]; AII(1-7) 2.5 μg/kg): 0% | Toxicity: WBC < 2000/μl (frequency) ([4]; AII(1-7) 2.5 μg/kg): 66% | Toxicity: ANC < 1000/μl (frequency) ([4]; AII(1-7) 10 μg/kg): 100% | Toxicity: Hgb < 10 gm/dl (frequency) ([4]; AII(1-7) 10 μg/kg): 33% | Toxicity: Lymph < 500/μl (frequency) ([4]; AII(1-7) 10 μg/kg): 33% | Toxicity: Platelet < 80 K/μl (frequency) ([4]; AII(1-7) 10 μg/kg): 0% | Toxicity: WBC < 2000/μl (frequency) ([4]; AII(1-7) 10 μg/kg): 66% | Toxicity: ANC < 1000/μl (frequency) ([4]; AII(1-7) 50 μg/kg): 100% | Toxicity: Hgb < 10 gm/dl (frequency) ([4]; AII(1-7) 50 μg/kg): 0% | Toxicity: Lymph < 500/μl (frequency) ([4]; AII(1-7) 50 μg/kg): 33% | Toxicity: Platelet < 80 K/μl (frequency) ([4]; AII(1-7) 50 μg/kg): 0% | Toxicity: WBC < 2000/μl (frequency) ([4]; AII(1-7) 50 μg/kg): 66% | Toxicity: ANC < 1000/μl (frequency) ([4]; AII(1-7) 75 μg/kg): 100% | Toxicity: Hgb < 10 gm/dl (frequency) ([4]; AII(1-7) 75 μg/kg): 0% | Toxicity: Lymph < 500/μl (frequency) ([4]; AII(1-7) 75 μg/kg): 0% | Toxicity: Platelet < 80 K/μl (frequency) ([4]; AII(1-7) 75 μg/kg): 0% | Toxicity: WBC < 2000/μl (frequency) ([4]; AII(1-7) 75 μg/kg): 100% | Toxicity: ANC < 1000/μl (frequency) ([4]; AII(1-7) 100 μg/kg): 100% | Toxicity: Hgb < 10 gm/dl (frequency) ([4]; AII(1-7) 100 μg/kg): 0% | Toxicity: Lymph < 500/μl (frequency) ([4]; AII(1-7) 100 μg/kg): 0% | Toxicity: Platelet < 80 K/μl (frequency) ([4]; AII(1-7) 100 μg/kg): 0% | Toxicity: WBC < 2000/μl (frequency) ([4]; AII(1-7) 100 μg/kg): 33% | platelets ([4]; across doses): dose-dependent increase in platelets | restoration of hemoglobin prior to the next cycle ([4]; all doses): restoration of hemoglobin prior to the next cycle was observed | over-production of formed blood elements ([4]; before or after chemotherapy): No over-production of formed blood elements | Alopecia (frequency by treatment group) ([4]; chemotherapy patients): 46% | Anemia (frequency by treatment group) ([4]; chemotherapy patients): 7% | Fatigue (frequency by treatment group) ([4]; chemotherapy patients): 93% | Headache (frequency by treatment group) ([4]; chemotherapy patients): 26% | Myalgia/Muscle-skeletal pain (frequency by treatment group) ([4]; chemotherapy patients): 53% | Nausea (frequency by treatment group) ([4]; chemotherapy patients): 93% | Stomatitis (frequency by treatment group) ([4]; chemotherapy patients): 40% | Vomiting (frequency by treatment group) ([4]; chemotherapy patients): 80% | frequency of grade 2-4 anemia ([4]; compared to filgrastim): reduced the frequency | frequency of grade 2-4 thrombocytopenia ([4]; compared to filgrastim): reduced the frequency | frequency of grade 3-4 lymphopenia ([4]; compared to filgrastim): reduced the frequency | late neutrophil recovery ([4]; compared to filgrastim): enhanced compared to filgrastim | synergy between filgrastim and AII(1-7) ([4]; following 10-12 days of AII(1-7), as little as 1 dose of filgrastim normalizes the neutrophil count): possible synergy | ability to maintain on cycle, full intensity chemotherapy ([4]; in vivo): permitted the patients to maintain full intensity chemotherapy on cycle | cycle delays due to neutropenia ([4]; in vivo): No cycle delays due to neutropenia | dose at which anemia correction with each cycle was observed ([4]; in vivo): ≥ 2.5 µg/kg | dose intensity of chemotherapy received by all study patients ([4]; in vivo): 100% | doses that appear to be active ([4]; in vivo): greater than 10 μg/kg/day | hematopoietic lineages ([4]; in vivo): increase in multiple hematopoietic lineages | level of nadir in number of white blood cells and absolute neutrophil count and time to these nadirs ([4]; in vivo): dose dependent increase | mobilization of hematopoietic progenitors into the peripheral blood ([4]; in vivo): mobilization of hematopoietic progenitors into the peripheral blood | neutrophil nadirs ([4]; in vivo): not affected | optimal dosage range ([4]; in vivo): 50 to 75 µg/kg/day | recovery towards baseline in formed blood elements ([4]; in vivo): improves the recovery towards baseline in all formed blood elements | day of nadir in platelet number ([4]; lowest dose of AII(1-7)): 12 days | hemoglobin after chemotherapy ([4]; lowest dose of AII(1-7)): reduction in hemoglobin was observed | hemoglobin level by the next cycle ([4]; lowest dose of AII(1-7)): returned to baseline levels by the next cycle | change in platelet number ([4]; next higher dose than 50 μg/kg/day): no decrease in platelet number occurred | reduction of the frequency of stomatitis ([4]; of that observed with filgrastim treatment): 30% | doses of filgrastim needed at day 15 to treat grade 4 neutropenia ([4]; patients treated at 2.5 and 10 μg/kg AII(1-7)): 1-2 doses | acute effect on blood pressure following administration ([4]; patients with or without a history of hypertension): No acute affect on blood pressure | frequency of headache, muscle pain and alopecia ([4]; relative to historical numbers and filgrastim controls): decreasing the frequency | anemia ([4]; subsequent dose increases of AII(1-7)): slight to no anemia | drug related serious adverse events [5]: No drug related serious adverse events | safety (summary) [5]: safe without observed dose limiting toxicities
